{"source": "the nanobody polyreactivity screen of Harvey et al. (2022)", "data": [{"experiment": "yeast display, Sf9 membrane polyspecificity reagent, FACS + sequencing; frameworks hold sequencing errors", "summary_of_the_method": "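In a synthetic yeast display library (Saccharomyces cerevisiae BJ5465), nanobody expression was induced with galactose for 36–48 hours. FACS gates were set low and high (top ~1%) using anti-HA fluorescence for expression and streptavidin fluorescence for binding of the Sf9 membrane reagent. Each polyreactivity label is drawn from the gate of origin.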", "values": [{"sequence": "LVQLVESGGGLVQAGGSLRLSCAASGFIFGYYAMGWYRQAPGKERELVAASTRSGGSTRYADSVKGRFTISRDKAKNTVYLQMNSLKPEDSAVYYCAADSCPINLYEDYWGQGTQVTVSS", "polyreactivity (PSR sort gate)": "high polyreactivity"}, {"sequence": "LVQLVESGGGLVQAGGSLRLSCAASGFTFPDYAMGWYRPAPGKERELVAAISSDGSTYYADSVKGRFTISRDNAKNTVYLQMNSLKPEDTAVYYCAAYVVWLYGYDYWGQGTQVTVSS", "polyreactivity (PSR sort gate)": "low polyreactivity"}, {"sequence": "LVQLVESGGGLVQAGGSLRLSCAASGSTFGYNAMGWYRQAPGKERELVAAISRGAGSTYYADSVKGRFTITRDNAKYTVYLQMNCLKPEDTAVYYCAKERPRGAPAYYSRIYDYWGQGTQVTVSS", "polyreactivity (PSR sort gate)": "high polyreactivity"}, {"sequence": "LVQLVESGGGLVQAGGSLRLSCAASGSTFSVNALGWYRQAPGNERELVAAITYSGGSTYYADSVKGRFTISRDTAKNTVYLQMNSLKPEDTAVYYCATRVWFYKSRGGYRERDYWGQGTQVTVSS", "polyreactivity (PSR sort gate)": "high polyreactivity"}, {"sequence": "LVQLVESGGGLVQAGGSLRLSCAASGSTSRKYTMGWYRQSPGKERELVARITSSGSSTYYADSVKGRFTISRDTAKNTVYLQMNSLKAEDTADYYCNARAHSDRKSSYIYLPYSYDYWGQGTQVTVSS", "polyreactivity (PSR sort gate)": "high polyreactivity"}, {"sequence": "LVQLVESGGGLVQAGGSLRLSFAASGLIFGRYAMGWYTQAPGKERELVAAISSSGVRTYYADSVKGRFTLSRDNAKNTVYLQLNSLKPEDTAVYYCAAAYWSSPEDTVIKRYYWGQGTQVTVSS", "polyreactivity (PSR sort gate)": "high polyreactivity"}, {"sequence": "LVQLVESGRGLVQAGGSLRLSCAASGSTFRINAMGWYRQAPGKERELVADINSGGNTTYADSVKGRFTISRDNAKNTVYLQMKSLIPEDTAVSYCAADPVFDLWEFLLDYGYDYWGQGSQVTVSS", "polyreactivity (PSR sort gate)": "low polyreactivity"}, {"sequence": "LVQLVQSGGGLVQAGGSLRLSCAASGLTFDYYAKGWYRQAPGKERELVAVISSGGSTYYADSVKGRITISRDNAKNTVYLQMNSLKTEDTAVYYCAAEIYRYRLRDEYDYWGQGTQVTVSS", "polyreactivity (PSR sort gate)": "low polyreactivity"}, {"sequence": "NVQLVESGGGLVQAGGSLRLSCAASGGIFYRYAMGWYRQAPGKEWELVATISRRGGRTYYADSVKGRFTISRDNEKNTVYLQMNSLKPEDTAVYYCAADEWQSGHCLEDDYWGQGTQVTVSS", "polyreactivity (PSR sort gate)": "high polyreactivity"}, {"sequence": "NVQLVESGGGLVQAGGSLRLSCAASGRTFNGYAMGWYRQAPGKERDLVASISWSGGRTYYADSVKGRFTISRDNAKNTVYLQMNSLKPEDTAVYYCAATFVNVVGYDYWGQGTQVTVSS", "polyreactivity (PSR sort gate)": "high polyreactivity"}, {"sequence": "PDQLVESGGGLVQAGGSLRLSCAASGRIFGTNAMGWYRQAPGKERELVADITSGGSTNYADSVKGRFTISRDNAKNTVYLQMNSLKPEDTAVYYCAADVIGDLRWYRDEYWGQGTQVTVSS", "polyreactivity (PSR sort gate)": "low polyreactivity"}, {"sequence": "PDQLVESGGGLVQAGGSLRLSCAASGRTFSGYGMGWYRQAPGKERELVAAFSSSGDSTYYADSVKGRFSIARDNPKNTVYVQMNSLKPDDPAVYYCNDYRRSYNGFRYYYWGQGTQVTVSS", "polyreactivity (PSR sort gate)": "low polyreactivity"}, {"sequence": "PVQLLESGRGLVQAGGRLRLSCAASGINFKYNAMGWYRQAPGKERELVAAISWRGGSTYYADSVKGRFTISRDNAKNTVSLQMNSLKPEDTAVYSCAANLAGSSYYDWGQGTQVTVSS", "polyreactivity (PSR sort gate)": "low polyreactivity"}, {"sequence": "PVQLQESGGGLVQAGRSLRMSSAASGNIFDADIMGWYRQAPGKERELVACIADGGSTNYADSVKGRFTISRDNAKYTVYLQMNSLKPEDTAVYYCAAIAYPDIPTCFDYDSDYFFRGQGTQVTVSS", "polyreactivity (PSR sort gate)": "low polyreactivity"}, {"sequence": "PVQLVESGGGLVQAGGSLRLSCAASGFISQDNAMGWYRQAPAKERELVATISGSGGITYYADSVKGRFTISRANAKTTVYVQMNSLKPEDTAVYYCNNEISYLSWGYDYWGQGTQVTVSS", "polyreactivity (PSR sort gate)": "low polyreactivity"}, {"sequence": "PVQLVESGGGLVQAGGSLRLSCAASGFTFSYYAMGWYRQAPGQEWELVAGIDDSCGSTYYADSVKGRFTISRDNAKNTVELQMNSLKPEDTAFYYCNAVYARKYYYSHGYDYWGQGTQVTVSS", "polyreactivity (PSR sort gate)": "high polyreactivity"}, {"sequence": "PVQLVESGGGLVQAGGSLRLSCAASGIIFYDYAMGWYRQAPGKERELGATITSGGSTNYADSVKGRFTISRDNAKNTVYLQLNSLKPEDTAVYYCAAGRGLILGGVYGYDYWGQGTQVTVSS", "polyreactivity (PSR sort gate)": "low polyreactivity"}, {"sequence": "PVQLVESGGGLVQAGGSLRLSCAASGIIFYRNAMAWYRQAPGKERELVAAITSSGGRTYYAYSVKGRFTISRDNAKNTVYLQMNRLKPEDTAVYYCAATRLYWKIFYGDGDYWGQGTQVTVSS", "polyreactivity (PSR sort gate)": "high polyreactivity"}, {"sequence": "PVQLVESGGGLVQAGGSLRLSCAASGRIFAYYAMGWYRQATGKERELVAAITRRGSTNYADSVKGRFTISGDNAKNTVYLQMNSLKQEVTAFYYCAARDAIYGSDYWGQGTQVNVSS", "polyreactivity (PSR sort gate)": "high polyreactivity"}, {"sequence": "PVQLVESGGGLVQAGGSLRLSCAASGRTFNSYPMVWYRQAPGKERELVADITSSGGSTYADSVKGRFTISRDNAKNTVYLQMNSLKPEDTAVYYCAVDNISNWAVENDYWGQGTQVTVSS", "polyreactivity (PSR sort gate)": "low polyreactivity"}, {"sequence": "PVQLVESGGGLVQAGGSLRLSCAASGRTYYTNAIGWYRQAAGNVRELVAAITGDGTSTYYADSVKGRFTMSRDNATYTVFLQINSLKPEDTAVYYCAATGGDRYEAYSYWGQGTQVTVSS", "polyreactivity (PSR sort gate)": "low polyreactivity"}, {"sequence": "PVQLVESGGGLVQAGGSLRLSCAASGSIFFGYAMGWYRQAPGKERELVAAFNGSVITSYADSVKGRFTISRDNAKNPVYVQMNSLKPEDTAYYCNTGSTWGAVIANYDHWGQGTQVTVSS", "polyreactivity (PSR sort gate)": "low polyreactivity"}, {"sequence": "PVQLVESGGGLVQAGGSLRLSCACSGRIFIYNSMGWYRQATGKEREFVAAISSSGGSTYYADSVKGRFTISRDNAKNTVYLHLNSLKPEDTAVYYCAAGGWPYSGGWFFQPNYYYWGQGTQVTVSS", "polyreactivity (PSR sort gate)": "low polyreactivity"}, {"sequence": "PVQLVESGGGLVQAGGSLRLSCADSGNIFTYNAMGWSRPEPGTERELVAGITSAGGTYYADSVKGRFTISRDNAKNSVYLQMNSLKPEDTAVYYWNVDYDNDTVRGDKIGYSYEYWGHGTQVTVSS", "polyreactivity (PSR sort gate)": "low polyreactivity"}, {"sequence": "PVQLVESGGGLVQAGGSLRLSCPASGRILVGNAMGWYRQAPGKERELVAALTSSGDSTNYADSVKGRFTISRDNAKNTVYLQMNSLKPEDTAVYYCAAGSFGTSGFSDVIWEGDYWGQGTQVTVSS", "polyreactivity (PSR sort gate)": "low polyreactivity"}, {"sequence": "PVQLVESGGGLVQAGGSLSLTCAASGFIFYDYAMRWYRPAPGKERELVAGITSSGTSTYYADSVKGRFTISRDNAKNTVYLQMNSLKPEDTSVYYFNKAPSWWDVRVPFDYWGQGTQVTVSS", "polyreactivity (PSR sort gate)": "low polyreactivity"}, {"sequence": "PVQLVESGGRLVQEGGSLRLICAASARIFPYYSMGWSRPAPGKERELVAAITTSGCRTYYADSVKGRFTISRDNAKYSVYLLMNSMKPEYTAVYVCNKYARGYDMDYWGQGTQVTVSS", "polyreactivity (PSR sort gate)": "high polyreactivity"}, {"sequence": "QAELVESGGGLVQAGGSLRLSCAASGLTFRAYAMGGYRQAPGKERELVAAISWNGGSTYYADSVKGRFTISRDNAKNTVYLQMNCLKPEDTAVYYCNAYDYQYFYGYEYDYWGQGTQVTVSS", "polyreactivity (PSR sort gate)": "high polyreactivity"}, {"sequence": "QAQLQESGGGLVQADGSLRLCCAASGSIFQTIYMGWYRQAPGKERELVASIDIGANTDYAVSVKGRFTISRDNAKNSVYLQMHSLKPEDTAVYYCAARYSRGRLLVSRGNYWGQGTQVTVSS", "polyreactivity (PSR sort gate)": "high polyreactivity"}, {"sequence": "QAQLVESGGGLVQAGGSLRLSCAASGYTFTANVMGWYRQAPGKERELVAAISWSGTSTSYADSVKGRFTISRDNAKNNVYLQMNSLKPEDTAVYYCNTVPYYTGSNGYWGQGTQVTVSS", "polyreactivity (PSR sort gate)": "low polyreactivity"}, {"sequence": "QAQLVETGGGLVQAGGSRRLSCAASGRTYKGYVMGWYRQAPGKEREFVAVITRDGGSTYYAVSVKGRFTISRDNAKNTVYLEMKSLKPEDTEVYYCASTYYPVAGEYDYWGQGTKVTVSS", "polyreactivity (PSR sort gate)": "low polyreactivity"}, {"sequence": "QAQSVESGGGLVQAGGSLRLICAASGITFGNYAMGWYRQAPGKERALVASISWNVGSTYYADSVKGRFTISRDNAKNTVYLQMNSLKPEDTSVYYCARGYDRPRVATFHRFDYWGQGTQVTVSS", "polyreactivity (PSR sort gate)": "low polyreactivity"}, {"sequence": "QDHLVDSGGGLVQAGGSLRLSCDASGRIFRWYTMGWYRQAPGKERELVATITSSGITSYADSVKGRFTISRDNAKNTDYLQMNSLKPEDTAVYYCAADHYYYIHGYDYWGQGTQVTVSS", "polyreactivity (PSR sort gate)": "high polyreactivity"}, {"sequence": "QDHLVESAAGLVQAGGRLRLSCAASGSTLYDYAMVWSRKAPGKDRELVAAIRTGGSTYYADSVKGRFTISRDNAKNTVYLQMNSLKTEDTAVYYCAADHGYQYGYWGQGTQVTVSS", "polyreactivity (PSR sort gate)": "low polyreactivity"}, {"sequence": "QDHLVESGGGLVEARGSLRLSCAASGFIFRGYAMGWYRQAPGKERELVAAINSGGSTNYADSVKGRFTISRDNAKNTVYLQMNSLKPEDSAVYYCAARWRSWRYKDDYWGQGSQVTVSS", "polyreactivity (PSR sort gate)": "high polyreactivity"}, {"sequence": "QDHLVESGGGLVQAGGSLRLSCAASGNIIWWNAMGWYRQAPGKERELVAAITSDSTTYYADSVKGRFTISRDNAKNTVYLQLNSLKPEDTAVYYCAAYSYGGQGVDYGYWGQGTQVTVSS", "polyreactivity (PSR sort gate)": "low polyreactivity"}, {"sequence": "QDHLVESGGGLVQAGGSLRLSCAASGRIFTPNAMGWYRQAPGKERELVAAITSGGSTNYADSVKGRFTISRDNAKNTVYLQMNSLKPQDTAVYYCAVRYYYCSKKRNYWGQGTHVTVSS", "polyreactivity (PSR sort gate)": "high polyreactivity"}, {"sequence": "QDHLVESGGGLVQAGGTLRLSCAASGRIFVGYAMGWYRQAPGKERELVAGISRSGDSTYYADSVKGRFTISRDNAKNTVYLQMNSLKPEDTAVYYCAASWYKNQTRYYYWGQGTQVTVSS", "polyreactivity (PSR sort gate)": "high polyreactivity"}, {"sequence": "QDHLVESGVGLVQAGGSLRLSCAASGFAFWTYTMGWYRQAPGKERELVATITRGGRTKYADSVKGRFTISRDNAKNTVYLQMNSLKPEDTAVYYCAAARRRTGVRMDYWGLGTQVTVSS", "polyreactivity (PSR sort gate)": "high polyreactivity"}, {"sequence": "QDLLVESGGGLVQAGGSLGLSCAASGRIFSIYAMGWYRLAPGKERELVAAITRGGRTNYADSVKGRFTISRDNAKNTDYLQMISLKPEDTAVYYCADRLIDGVVKPYDYWGQGTQVTVSS", "polyreactivity (PSR sort gate)": "low polyreactivity"}, {"sequence": "QDPHVESGGGIVQAGGSISLRCSASGSTYAKKAMVRYRKAPGKEKELFADISASGGSTYYADSVKGRFTISRDIAKNSVYLQMYSLKPEETSVYYWAKSSYLTRGSRYDYWGQGTQVTLSS", "polyreactivity (PSR sort gate)": "low polyreactivity"}, {"sequence": "QDQHVESGGGLVQAGGSLRLSCAASGIIFYAYVMGWYRQAPGKERELVAAITVSGGSTYYADSVKARFTISRDNAKNTVYLQMNSLKPEDTAVYYCAADWNFYQRTFDSWGQGTQVTVSS", "polyreactivity (PSR sort gate)": "low polyreactivity"}, {"sequence": "QDQHVESGGGLVQAGGSLRLSCAASGITIRTNAIGWYRQAPGKERELVAAITTNGGNTYYADSVKGRFTISRENAKNTVYLQMNSLKQEDTAVYYCNTATYVDSFPDPGDHWGQGTQVTVSS", "polyreactivity (PSR sort gate)": "low polyreactivity"}]}]}
